Molecular target: Aquifex aeolicus VF5 Wzt carbohydrate-binding domain (residues 235-395), long construct (Aquifex aeolicus VF5)
Test: SEC

For “Aquifex aeolicus VF5 Wzt carbohydrate-binding domain (residues 235-395), long construct (domain or fragment)”, the stoichiometry N was 2.

— paper PMC7004846
